{"source": "patent US20210265014A1", "about": "“METHOD AND ELECTRONIC SYSTEM FOR PREDICTING AT LEAST ONE FITNESS VALUE OF A PROTEIN VIA AN EXTENDED NUMERICAL SEQUENCE, RELATED COMPUTER PROGRAM PRODUCT” (PEACCEL, priority 2018, published 2021)", "origin": "cited, not measured here", "molecules": {"B1": {"name": "L215 F_A217N_R219S_L249Y_T317W_T318V_C350V: epoxide hydrolase mutant from Aspergillus niger (protein)", "chain": "NHKAFAKFPSSASISPNPFTVSIPDEQLDDLKTLVRLSKIAPPTYESLQADGRFGITSEWLTTMREKWLSEFDWRPFEARLNSFPQFTTEIEGLTIHFAALFSEREDAVPIALLHGWPGSFVEFYPILQLFREEYTPETLPFHLVVPSLPGYTFSSGPPLDKDFGLMDNARVVDQLMKDLGFGSGYIIQGGDIGSFVGRLLGVGFDACKAVHLNLCNMSAPPEGPSIESLSAAEKEGIARMEKFMTDGYAYAMEHSTRPSTIGHVLSSSPIALLAWIGEKYLQWVDKPLPSETILEMVSLYWLTESFPRAIHTYREWVPTASAPNGATMLQKELYIHKPFGFSFFPKDLVPVPRSWIATTGNLVFFRDHAEGGHFAALERPRELKTDLTAFVEQVWQK"}, "B2": {"name": "WT: WT epoxide hydrolase sequence from Aspergillus niger (protein)", "chain": "B1 chain with N217A, S219R, Y249L, W317T, V318T, V350C", "modifications": "Aspergillus niger"}}, "conditions": "Aspergillus niger epoxide hydrolase; for ΔΔG values: enantioselectivity as ΔΔG‡=−RT ln(E); for E-value: enantioselectivity, glycidyl phenyl ether", "note": "Numbering of substitutions follows the chain as printed."}
{"molecule": "B1", "values": [{"measurement": "ΔΔG values", "result": -11.4, "unit": "kJ/mol"}, {"measurement": "E-value", "result": 93.2}]}
{"molecule": "B2", "values": [{"measurement": "ΔΔG values", "result": -3.56, "unit": "kJ/mol"}, {"measurement": "E-value", "result": 4}]}
